Assay results published in patent US20190177709.

Assays:
Assay in all cases: cell_activity
[1] = target: ZFN 65459 (left) F1 Qm14 Qm5, F3 Qm5, F5 Qm5 (R to Q) (synthetic) (UniProt P14870); conditions: with 65526, L:R 60:15 ug RNA, CD34+ cells
[2] = target: ZFN 65526 (right) F1 Qm5, F2 Qm5, F4 Qm5, F5 Qm5 (R to Q); FokI R416S (synthetic) (UniProt P14870); conditions: with 63014, L:R 60:15 ug RNA, CD34+ cells
[3] = target: ZFN 65549 (right) F1 Qm5, F2 Qm5, F3 Qm5, F4 Qm5 (R to Q); FokI K525S (synthetic) (UniProt P14870); conditions: with 63014, 60:60 ug RNA, CD34+ cells; Table 3 gives 79.82
[4] = target: ZFN 65550 (right) F1 Qm5, F2 Qm5, F4 Qm5, F5 Qm5 (R to Q); FokI K525S (synthetic) (UniProt P14870); conditions: with 63014, 60:60 ug RNA, CD34+ cells; Table 3 gives 79.96

Row | Sequence | activity [1] [% indels] | activity [2] [% indels] | activity [3] [% indels] | activity [4] [% indels]
1 | AAAGCAACTGTTAGCTTGCACTAGACTA (double strand) [BCL11A +58 left half-site] | 76.9 |  |  | 
2 | CACAGGCTCCAGGAAGGGTTTGGCCTCT (double strand) [BCL11A +58 right half-site] |  | 81.2 | 80 | 79.8
